The results in this text go back to doi:10.1101/2025.11.21.689414 (bioRxiv, 2025).

For one experiment, the target named is parvin alpha (PARVA) (Homo sapiens (species ; …, UniProt Q9NVD7). The experiment can be described thus: ELISA. (In general: ELISA stands for enzyme-linked immunosorbent assay.)
The target of experiment [1] is alpha hemoglobin stabilizing protein (AHSP) (Homo sapiens (species ; …, UniProt Q9NZD4). The experiment can be described thus: ELISA.
Experiment [2] deals with Frizzled class receptor 7 (Fzd7), His-tagged (UniProt O75084). Briefly: BLI. On the technique in general: BLI is a label-free optical method that tracks binding on a fibre tip over time.

Sequence of alpha hemoglobin stabilizing protein (AHSP) (Homo sapiens (Q9NZD4 whole entry): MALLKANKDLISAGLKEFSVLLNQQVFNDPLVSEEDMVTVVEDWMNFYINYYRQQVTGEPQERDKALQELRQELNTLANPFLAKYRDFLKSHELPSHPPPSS
Sequence of parvin alpha (PARVA) (Homo sapiens (Q9NVD7 whole entry): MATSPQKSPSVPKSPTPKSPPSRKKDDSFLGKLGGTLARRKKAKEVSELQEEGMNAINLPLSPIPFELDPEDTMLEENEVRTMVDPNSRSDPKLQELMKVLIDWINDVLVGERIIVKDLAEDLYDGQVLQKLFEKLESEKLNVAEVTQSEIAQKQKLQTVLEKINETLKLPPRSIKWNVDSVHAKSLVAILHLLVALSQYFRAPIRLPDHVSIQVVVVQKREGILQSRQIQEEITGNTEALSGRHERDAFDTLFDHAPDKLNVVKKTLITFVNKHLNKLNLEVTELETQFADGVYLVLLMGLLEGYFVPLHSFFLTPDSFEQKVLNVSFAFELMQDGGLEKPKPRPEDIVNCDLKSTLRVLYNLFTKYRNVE

B1: representative PARVA binder (GaluxDesign de novo designed full-length IgG, cross-platform benchmark) (antibody, V domains shown)
VH: EEQLVESGGGLVQPGGSLRLSCAASGFNIKDYWIHWVRQAPGKGLEWVAWINPQSGWTNYADSVKGRFTISADTSKNTAYLQMNSLRAEDTATYYCAKIGDWGGKGYALDVWGQGTLVTVSS
VL: DIVMTQSPSSLSASVGDRVTITCRASQDISTALAWYQQKPGQAPKLLIYKASSLASGVPSRFSGSGSGTDFTLTISSLQPEDFATYYCQQFRDLSTLTFGQGTKVEIK
As for B1, in the experiment with parvin alpha (PARVA), the binding result is listed as “binds”.

B2: representative AHSP binder (GaluxDesign de novo designed full-length IgG, cross-platform benchmark) (antibody, V domains shown)
VH: VQLVESGGGLVQPGGSLRLSCAASGFNIKSFWIHWVRQAPGKGLEWVAWIFALTGNTYYADSVKGRFTISADTSKNTAYLQMNSLRAEDTAVYYCAKASGVSIPLWFDVWGQGTLVTVSS
VL: DIQMTQSPSSLSASVGDKVTITCKASQDISNYLAWYQQKPGKAPKLLIYAASNRKYGVPSRFSGSGSGTDFTLTISSLQPEDFATYYCQQYYSTPLTFGQGTKVEIK
For B2, in experiment [1], the binding result is “binds”.

B3: F7.B (reference anti-Fzd7 antibody, PDB entry 6O3A) (antibody, V domains shown)
VH: EVQLVESGGGLVQPGGSLRLSCAASGFNFSSSSIHWVRQAPGKGLEWVAYIYPSYDYTYYADSVKGRFTISADTSKNTAYLQMNSLRAEDTAVYYCARGYFYTWGGMDYWGQGTLVTVSS
VL: DIQMTQSPSSLSASVGDRVTITCRASQSVSSAVAWYQQKPGKAPKLLIYSASSLYSGVPSRFSGSRSGTDFTLTISSLQPEDFATYYCQQYYSLFTFGQGTKVEIK
For the molecule B3, the binding result in experiment [2] is “binds”.
